Target: HER3 receptor (human (endogenous in AU565)) (UniProt P21860)
Chain of UniProt P21860 (P21860 20-1342): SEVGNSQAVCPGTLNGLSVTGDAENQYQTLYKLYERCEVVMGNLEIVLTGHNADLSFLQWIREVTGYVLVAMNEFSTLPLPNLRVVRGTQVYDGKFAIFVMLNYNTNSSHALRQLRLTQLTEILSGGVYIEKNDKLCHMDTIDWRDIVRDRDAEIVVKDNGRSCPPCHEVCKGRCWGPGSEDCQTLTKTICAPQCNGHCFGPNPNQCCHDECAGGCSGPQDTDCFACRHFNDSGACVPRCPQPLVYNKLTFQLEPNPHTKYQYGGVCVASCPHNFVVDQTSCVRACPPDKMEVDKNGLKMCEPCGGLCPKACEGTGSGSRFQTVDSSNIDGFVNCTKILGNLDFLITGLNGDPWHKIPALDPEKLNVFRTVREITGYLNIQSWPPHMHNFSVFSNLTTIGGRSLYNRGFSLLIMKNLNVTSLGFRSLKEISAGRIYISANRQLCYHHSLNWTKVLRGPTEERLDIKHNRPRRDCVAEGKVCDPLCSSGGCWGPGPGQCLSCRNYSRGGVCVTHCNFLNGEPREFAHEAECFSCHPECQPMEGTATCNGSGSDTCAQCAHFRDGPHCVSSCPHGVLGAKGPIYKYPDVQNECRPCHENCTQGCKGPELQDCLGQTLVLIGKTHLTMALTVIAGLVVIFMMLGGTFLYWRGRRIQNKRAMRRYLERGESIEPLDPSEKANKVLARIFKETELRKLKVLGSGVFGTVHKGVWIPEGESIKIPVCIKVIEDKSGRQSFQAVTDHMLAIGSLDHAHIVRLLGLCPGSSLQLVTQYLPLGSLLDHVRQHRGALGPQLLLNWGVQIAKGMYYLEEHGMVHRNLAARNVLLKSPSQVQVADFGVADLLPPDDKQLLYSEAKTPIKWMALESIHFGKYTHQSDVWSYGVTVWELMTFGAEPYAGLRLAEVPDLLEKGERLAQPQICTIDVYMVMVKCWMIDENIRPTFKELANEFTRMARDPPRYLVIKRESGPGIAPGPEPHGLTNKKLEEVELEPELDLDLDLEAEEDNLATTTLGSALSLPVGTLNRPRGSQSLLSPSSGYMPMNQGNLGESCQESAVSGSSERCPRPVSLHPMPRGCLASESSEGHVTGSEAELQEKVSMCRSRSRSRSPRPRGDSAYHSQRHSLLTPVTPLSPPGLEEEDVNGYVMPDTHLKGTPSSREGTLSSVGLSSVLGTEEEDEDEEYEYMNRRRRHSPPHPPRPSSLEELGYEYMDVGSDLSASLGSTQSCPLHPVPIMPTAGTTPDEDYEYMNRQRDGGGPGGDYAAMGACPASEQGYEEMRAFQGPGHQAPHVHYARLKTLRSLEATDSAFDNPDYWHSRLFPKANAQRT

IC50 of Affibody molecule Z05416 (no letters) for inhibition of growth of MCF-7 cells induced by 40 pM HRG (EGF domain construct), 5 days, CCK-8: 19 nM
IC50 of Affibody molecule Z05416 (no letters) for inhibition of growth of SKBR-3 cells induced by 40 pM HRG (EGF domain construct), 5 days, CCK-8: 73 nM
IC50 of Affibody molecule Z05417 (no letters) for inhibition of growth of MCF-7 cells induced by 40 pM HRG (EGF domain construct), 5 days, CCK-8: 15 nM
IC50 of Affibody molecule Z05417 (no letters) for inhibition of growth of SKBR-3 cells induced by 40 pM HRG (EGF domain construct), 5 days, CCK-8: 65 nM
Substance: heregulin (HRG, NRG1-β1/HRG1-β1 ECD domain), biotinylated (ligand)
